# Data published in IntAct's records for PubMed 11872753.
# B1: Acid-sensing ion channel 3 (Rattus norvegicus (Rat)), O35240 (parent)
# chain: MKPRSGLEEAQRRQASDIRVFASSCTMHGLGHIFGPGGLTLRRGLWATAVLLSLAAFLYQVAERVRYYGEFHHKTTLDERESHQLTFPAVTLCNINPLRRSRLTPNDLHWAGTALLGLDPAEHAAYLRALGQPPAPPGFMPSPTFDMAQLYARAGHSLEDMLLDCRYRGQPCGPENFTVIFTRMGQCYTFNSGAHGAELLTTPKGGAGNGLEIMLDVQQEEYLPIWKDMEETPFEVGIRVQIHSQDEPPAIDQLGFGAAPGHQTFVSCQQQQLSFLPPPWGDCNTASLDPDDFDPEPSDPLGSPRPRPSPPYSLIGCRLACESRYVARKCGCRMMHMPGNSPVCSPQQYKDCASPALDAMLRKDTCVCPNPCATTRYAKELSMVRIPSRASARYLARKYNRSESYITENVLVLDIFFEALNYEAVEQKAAYEVSELLGDIGGQMGLFIGASLLTILEILDYLCEVFQDRVLGYFWNRRSAQKRSGNTLLQEELNGHRTHVPHLSLGPRPPTTPCAVTKTLSASHRTCYLVTRL
# partner: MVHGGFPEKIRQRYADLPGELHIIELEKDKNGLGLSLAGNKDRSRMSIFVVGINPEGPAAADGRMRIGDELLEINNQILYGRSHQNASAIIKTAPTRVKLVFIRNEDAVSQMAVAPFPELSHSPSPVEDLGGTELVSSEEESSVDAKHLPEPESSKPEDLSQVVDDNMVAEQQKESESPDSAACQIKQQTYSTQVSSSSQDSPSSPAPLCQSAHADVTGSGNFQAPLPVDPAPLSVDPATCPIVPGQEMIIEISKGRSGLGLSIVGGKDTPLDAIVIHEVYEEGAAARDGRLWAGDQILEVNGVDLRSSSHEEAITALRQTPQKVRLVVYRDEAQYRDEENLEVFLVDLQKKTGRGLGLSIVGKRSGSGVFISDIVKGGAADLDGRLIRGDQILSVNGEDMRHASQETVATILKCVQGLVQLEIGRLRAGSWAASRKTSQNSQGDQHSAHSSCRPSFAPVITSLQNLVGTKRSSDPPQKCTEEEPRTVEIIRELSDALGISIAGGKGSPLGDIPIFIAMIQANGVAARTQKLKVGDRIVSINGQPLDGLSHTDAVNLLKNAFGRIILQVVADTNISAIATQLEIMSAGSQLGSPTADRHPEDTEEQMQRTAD
# Variants of: B1
# Details: with Patj
row,effect of a mutation on the interaction,Variant
1,disrupting interaction,L533F
